According to patent US5985836A, “Alpha-1 proteinase inhibitor binding peptides” (Bayer Corporation, priority 1998, dated 1999):
Ends that are not written are not given here.

Target: T1, A1PI (Homo sapiens, UniProt P01009)
T1 construct: Human plasma is currently the only approved source of therapeutic AlPI
Assay: A1PI binding on peptide-resin column, injection of 1 mg A1PI in equilibration buffer
Conditions: for % of Total A1PI Eluted by Fraction (Based on Absorbance at 280 nm), 1M NaCl / % of Total A1PI Eluted by Fraction (Based on Absorbance at 280 nm), 2% Acetic Acid / % of Total A1PI Eluted by Fraction (Based on Absorbance at 280 nm), Flowthrough: 1 mg A1PI
In short: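 Peptides synthesized on A-Totda-Toyopearl chelate resin (0.1 mmole/g) packed in 0.4×5 cm columns; 1 mg A1PI injected in equilibration buffer at 4 °C or 20 °C, 865 or 523 μl/min. Flowthrough, 1M/3M NaCl washes and 2% acetic acid eluate quantified by A280 or immunonephelometry as percent of total eluted.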

[1] = 1 mg A1PI in equilibration buffer, 4° C.
[2] = 1 mg A1PI in equilibration buffer, 20° C.
[3] = VIWLVR N-terminal point mutations, 4° C.

T1 sequence (P01009 25-418): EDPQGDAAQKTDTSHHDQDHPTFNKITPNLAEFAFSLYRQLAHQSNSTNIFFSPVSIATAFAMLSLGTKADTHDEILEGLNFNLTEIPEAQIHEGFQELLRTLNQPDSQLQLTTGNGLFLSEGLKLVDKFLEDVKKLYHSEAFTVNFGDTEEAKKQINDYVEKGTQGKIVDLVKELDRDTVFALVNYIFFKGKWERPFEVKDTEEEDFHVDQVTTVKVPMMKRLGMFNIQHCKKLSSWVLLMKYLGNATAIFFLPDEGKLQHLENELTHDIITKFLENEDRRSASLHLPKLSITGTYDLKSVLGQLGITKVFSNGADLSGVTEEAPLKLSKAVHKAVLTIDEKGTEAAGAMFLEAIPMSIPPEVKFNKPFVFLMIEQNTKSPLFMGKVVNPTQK

Substance: VIWLVR
- Percent A1PI Eluted by Fraction Based on Absorbance at 280 nm, 1M NaCl [1]: 25%
- Percent A1PI Eluted by Fraction Based on Absorbance at 280 nm, 2% Acetic Acid [1]: 30%
- Percent A1PI Eluted by Fraction Based on Absorbance at 280 nm, Flowthrough [1]: 45%
- Percent A1PI Eluted by Fraction, 1M NaCl [2]: 26%
- Percent A1PI Eluted by Fraction, 2% Acetic Acid [2]: 66%
- Percent A1PI Eluted by Fraction, Flowthrough [2]: 8%
- % of Total A1PI Eluted by Fraction (Based on Absorbance at 280 nm), 1M NaCl (Trp position mutations, 4° C.): 25%
- % of Total A1PI Eluted by Fraction (Based on Absorbance at 280 nm), 2% Acetic Acid (Trp position mutations, 4° C.): 30%
- % of Total A1PI Eluted by Fraction (Based on Absorbance at 280 nm), Flowthrough (Trp position mutations, 4° C.): 45%
- % of Total A1PI Eluted by Fraction (Based on Absorbance at 280 nm), 1M NaCl (Trp position mutations, 20° C.): 26%
- % of Total A1PI Eluted by Fraction (Based on Absorbance at 280 nm), 2% Acetic Acid (Trp position mutations, 20° C.): 66%
- % of Total A1PI Eluted by Fraction (Based on Absorbance at 280 nm), Flowthrough (Trp position mutations, 20° C.): 8%
- % of Total A1PI Eluted by Fraction (Based on Absorbance at 280 nm), 1M NaCl [3]: 25%
- % of Total A1PI Eluted by Fraction (Based on Absorbance at 280 nm), 2% Acetic Acid [3]: 30%
- % of Total A1PI Eluted by Fraction (Based on Absorbance at 280 nm), Flowthrough [3]: 45%
